Source: the supplement of paper PMC10567573

B1: HESX1 (parent)
chain: ENKPSTCSFSIERILGLDQKKDCV

Variants of: B1
Assay: protein stability index of a GFP-peptide fusion (GPS, HEK-293T) (PSI 1-6); higher = more stable
Settings: c terminus: a fixed tail appended
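Also: lentivirally expressed fusions sorted by FACS into six bins by GFP to DsRed ratio, PSI derived from sequencing read proportions per bin multiplied by bin number.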

Variant | protein stability index
ENKPSTCSFSIERILGLEQKKDCV [D18E] | 3.4
ENKPSTCSFSIERILGLRQKKDCV [D18R] | 2.76
ENKPSTCSFSIERILGLCQKKDCV [D18C] | 2.85
ENKPSTCSFSIERILGLNQKKDCV [D18N] | 2.62
ENKPSTCSFSIERILGLDQMKDCV [K20M] | 2.67
ENKPSTCSFSIERILGLDQTKDCV [K20T] | 2.53
ENKPSTCSFSIERILGLDQCKDCV [K20C] | 2.52
ENKPSTCSFSIERILGLDQFKDCV [K20F] | 2.22
ENKPSTCSFSIERILGLDQLKDCV [K20L] | 1.93
ENKPSTCSFSIERILGLDQEKDCV [K20E] | 3.08
ENKPSTCSFSIERILGLDQPKDCV [K20P] | 2.75
ENKPSTCSFSIERILGLDQHKDCV [K20H] | 2.47
ENKPSTCSFSIERILGLDQAKDCV [K20A] | 2.45
ENKPSTCSFSIERILGLDQIKDCV [K20I] | 2.13
ENKPSTCSFSIERILGLDQWKDCV [K20W] | 1.62
ENKPSTCSFSIERILGLDQYKDCV [K20Y] | 1.97
ENKPSTCSFSIERILGLDQSKDCV [K20S] | 2.69
ENKPSTCSFSIERILGLDQQKDCV [K20Q] | 2.56
ENKPSTCSFSIERILGLDQNKDCV [K20N] | 2.71
ENKPSTCSFSIERILGLDQVKDCV [K20V] | 2.25
ENKPSTCSFSIERILGLDQDKDCV [K20D] | 3.27
ENKPSTCSFSIERILGLDQRKDCV [K20R] | 2.41
ENKPSTCSFSIERIQGLDQKKDCV [L15Q] | 2.69
ENKPSTCSFSIERIIGLDQKKDCV [L15I] | 2.96

Variant | protein stability index
ENKPSTCSFSIERIHGLDQKKDCV [L15H] | 3.13
ENKPSTCSFSIERIGGLDQKKDCV [L15G] | 3.27
ENKPSTCSFSIERIKGLDQKKDCV [L15K] | 4.23
ENKPSTCSFSIERITGLDQKKDCV [L15T] | 4
ENKPSTCSFSIERIMGLDQKKDCV [L15M] | 2.12
ENKPSTCSFSIERIPGLDQKKDCV [L15P] | 3.44
ENKPSTCSFSIERIWGLDQKKDCV [L15W] | 2.46
ENKPSTCSFSIERIFGLDQKKDCV [L15F] | 2.53
ENKPSTCSFSIERIEGLDQKKDCV [L15E] | 4.11
ENKPSTCSFSIERICGLDQKKDCV [L15C] | 2.63
ENKPSTCSFSIERIVGLDQKKDCV [L15V] | 4.16
ENKPSTCSFSIERIDGLDQKKDCV [L15D] | 4.06
ENKPSTCSFSIERISGLDQKKDCV [L15S] | 3.5
ENKPSTCSFSIERINGLDQKKDCV [L15N] | 3.73
ENKPSTCSFSIERIYGLDQKKDCV [L15Y] | 2.38
ENKPSTCSFSIERIAGLDQKKDCV [L15A] | 3.14
ENKPSTCSFSIERIRGLDQKKDCV [L15R] | 3.61
ENKPSTCSFSIERILPLDQKKDCV [G16P] | 3.75
ENKPSTCSFSIERILDLDQKKDCV [G16D] | 3.74
ENKPSTCSFSIERILSLDQKKDCV [G16S] | 3.28
ENKPSTCSFSIERILQLDQKKDCV [G16Q] | 3.76
ENKPSTCSFSIERILHLDQKKDCV [G16H] | 2.83
ENKPSTCSFSIERILILDQKKDCV [G16I] | 2.63
ENKPSTCSFSIERILFLDQKKDCV [G16F] | 2.49

Variant | protein stability index
ENKPSTCSFSIERILMLDQKKDCV [G16M] | 2.92
ENKPSTCSFSIERILLLDQKKDCV [G16L] | 2.43
ENKPSTCSFSIERILTLDQKKDCV [G16T] | 3.69
ENKPSTCSFSIERILKLDQKKDCV [G16K] | 2.9
ENKPSTCSFSIERILALDQKKDCV [G16A] | 3.2
ENKPSTCSFSIERILCLDQKKDCV [G16C] | 2.83
ENKPSTCSFSIERILVLDQKKDCV [G16V] | 3.15
ENKPSTCSFSIERILYLDQKKDCV [G16Y] | 2.28
ENKPSTCSFSIERILELDQKKDCV [G16E] | 3.27
ENKPSTCSFSIERILWLDQKKDCV [G16W] | 2.32
ENKPSTCSFSIERILNLDQKKDCV [G16N] | 3.41
ENKPSTCSFSIERILRLDQKKDCV [G16R] | 2.23
ENKPSTCSFSIETILGLDQKKDCV [R13T] | 3.35
ENKPSTCSFSIEWILGLDQKKDCV [R13W] | 1.75
ENKPSTCSFSIEGILGLDQKKDCV [R13G] | 3.78
ENKPSTCSFSIEIILGLDQKKDCV [R13I] | 1.82
ENKPSTCSFSIEVILGLDQKKDCV [R13V] | 2.12
ENKPSTCSFSIEFILGLDQKKDCV [R13F] | 1.48
ENKPSTCSFSIEHILGLDQKKDCV [R13H] | 3.31
ENKPSTCSFSIEPILGLDQKKDCV [R13P] | 4.41
ENKPSTCSFSIESILGLDQKKDCV [R13S] | 3.24
ENKPSTCSFSIELILGLDQKKDCV [R13L] | 2.27
ENKPSTCSFSIEKILGLDQKKDCV [R13K] | 2.33
ENKPSTCSFSIEQILGLDQKKDCV [R13Q] | 2.68

Variant | protein stability index
ENKPSTCSFSIENILGLDQKKDCV [R13N] | 3.96
ENKPSTCSFSIEMILGLDQKKDCV [R13M] | 1.9
ENKPSTCSFSIEYILGLDQKKDCV [R13Y] | 2.08
ENKPSTCSFSIERILGLDQKGDCV [K21G] | 2.86
ENKPSTCSFSIERILGLDQKMDCV [K21M] | 2.05
ENKPSTCSFSIERILGLDQKTDCV [K21T] | 3.19
ENKPSTCSFSIERILGLDQKRDCV [K21R] | 2.62
ENKPSTCSFSIERILGLDQKQDCV [K21Q] | 2.93
ENKPSTCSFSIERILGLDQKCDCV [K21C] | 2.11
ENKPSTCSFSIERILGLDQKYDCV [K21Y] | 1.67
ENKPSTCSFSIERILGLDQKFDCV [K21F] | 2.35
ENKPSTCSFSIERILGLDQKADCV [K21A] | 2.41
ENKPSTCSFSIERILGLDQKSDCV [K21S] | 2.95
ENKPSTCSFSIERILGLDQKLDCV [K21L] | 2.27
ENKPSTCSFSIERILGLDQKVDCV [K21V] | 2.54
ENKPSTCSFSIERILGLDQKEDCV [K21E] | 3.4
ENKPSTCSFSIERILGLDQKIDCV [K21I] | 1.9
ENKPSTCSFSIERILGLDQKNDCV [K21N] | 2.62
ENKPSTCSFSIERILGLDQKPDCV [K21P] | 2.67
ENKPSTCSFSIERILGLDQKDDCV [K21D] | 3.16
ENKPSTCSFSIERILGLDQKWDCV [K21W] | 1.86
ENKPSTCSFSIERILGLDQKHDCV [K21H] | 2.35
